To fix the notation:
B1: IQUB (parent)
chain: EADYEDDSKIAFLMQLQDIQYLTE
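Note: lentivirally expressed fusions sorted by FACS into six bins by GFP to DsRed ratio, PSI derived from sequencing read proportions per bin multiplied by bin number.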

Variants of B1 are the subject of the data set. Put plainly: protein stability index of a GFP-peptide fusion (GPS, HEK-293T) (PSI 1-6); higher = more stable. The settings on record: c terminus: a fixed tail appended.
Regarding EADYEDDSKIAFLMQLIDIQYLTE [Q17I], the protein stability index amounted to 1.76.
The figure for EADYEDDSKIAFLMQLGDIQYLTE [Q17G] is 3.46.
Then EADYEDDSKIAFLMQLMDIQYLTE [Q17M], with 2.17; and EADYEDDSKIAFLMQLWDIQYLTE [Q17W], with 2.02; and EADYEDDSKIAFLMQLNDIQYLTE [Q17N], with 3.5.
Then EADYEDMSKIAFLMQLQDIQYLTE [D7M], with 2.03.
Consider EADYEDQSKIAFLMQLQDIQYLTE [D7Q], for which the protein stability index stood at 3.2.
The figure for EADYEDPSKIAFLMQLQDIQYLTE [D7P] is 2.67.
Then EADYEDYSKIAFLMQLQDIQYLTE [D7Y], with 2.18; and EADYEDASKIAFLMQLQDIQYLTE [D7A], with 2.48; and EADYEDNSKIAFLMQLQDIQYLTE [D7N], with 2.19.
As for EADYEDFSKIAFLMQLQDIQYLTE [D7F], the protein stability index is 1.17.
The figure for EADYEDISKIAFLMQLQDIQYLTE [D7I] is 1.93; for EADYEDDSKVAFLMQLQDIQYLTE [I10V] it is 3.42; for EADYEDDSKFAFLMQLQDIQYLTE [I10F] it is 2.9.
Then EADYEDDSKCAFLMQLQDIQYLTE [I10C], with 3.34.
For the variant EADYEDDSKPAFLMQLQDIQYLTE [I10P], the protein stability index is 4.53.
Then EADYEDDSKWAFLMQLQDIQYLTE [I10W], with 3.08; and EADYEDDSKNAFLMQLQDIQYLTE [I10N], with 4.17; and EADYEDDSKHAFLMQLQDIQYLTE [I10H], with 4.29.
In the case of EADYEDDSKIAFLMQLQTIQYLTE [D18T], the protein stability index stood at 1.72.
Regarding EADYEDDSKIAFLMQLQYIQYLTE [D18Y], the protein stability index is 1.54.
As for EADYEDDSKIAFLMQLQNIQYLTE [D18N], the protein stability index turned out to be 2.58.
For the variant EADYEDDSKIAFLMQLQIIQYLTE [D18I], the protein stability index turned out to be 1.39.
Then EADYEDDSKIAFLMQLQKIQYLTE [D18K], with 2.65; and EADYEDDSKIAFLMQLQQIQYLTE [D18Q], with 2.68.
For the variant EADYEDDSKIAFLMFLQDIQYLTE [Q15F], the protein stability index worked out at 1.77.
Then EADYEDDSKIAFLMVLQDIQYLTE [Q15V], with 1.76; and EADYEDDSKIAFLMELQDIQYLTE [Q15E], with 3.36; and EADYEDDSKIAFLMKLQDIQYLTE [Q15K], with 2.9.
The figure for EADYEDDSKIAFLMYLQDIQYLTE [Q15Y] is 2.09.
Regarding EADYEDDSKIAFLMNLQDIQYLTE [Q15N], the protein stability index was determined as 2.84.
For the variant EADYEDDSKIAFLMSLQDIQYLTE [Q15S], the protein stability index came to 2.46.
The figure for EADYEDDSKIAFLMHLQDIQYLTE [Q15H] is 2.44.
Then EADYEDDSKIAFLMILQDIQYLTE [Q15I], with 1.98.
Turning to EADYEDDSKIAALMQLQDIQYLTE [F12A], the protein stability index came out at 3.89.
For EADYEDDSKIAELMQLQDIQYLTE [F12E], the protein stability index was 5.06.
The figure for EADYEDDSKIAPLMQLQDIQYLTE [F12P] is 4.75; for EADYEDDSKIARLMQLQDIQYLTE [F12R] it is 4.38.
The figure for EADYEDDSKIADLMQLQDIQYLTE [F12D] is 5.07; for EADYEDDSKIAVLMQLQDIQYLTE [F12V] it is 3.54; for EADYEDDSKIAWLMQLQDIQYLTE [F12W] it is 3.18.
Then EKDYEDDSKIAFLMQLQDIQYLTE [A2K], with 2.89; and EVDYEDDSKIAFLMQLQDIQYLTE [A2V], with 2.99; and ERDYEDDSKIAFLMQLQDIQYLTE [A2R], with 2.44.
EHDYEDDSKIAFLMQLQDIQYLTE [A2H]: the protein stability index was determined as 2.51.
The figure for EGDYEDDSKIAFLMQLQDIQYLTE [A2G] is 2.71; for ETDYEDDSKIAFLMQLQDIQYLTE [A2T] it is 2.93; for ENDYEDDSKIAFLMQLQDIQYLTE [A2N] it is 3.41.
Then EADGEDDSKIAFLMQLQDIQYLTE [Y4G], with 3.61.
Take EADREDDSKIAFLMQLQDIQYLTE [Y4R]: the protein stability index was 3.42.
For the variant EADNEDDSKIAFLMQLQDIQYLTE [Y4N], the protein stability index came out at 4.01.
The figure for EADCEDDSKIAFLMQLQDIQYLTE [Y4C] is 3.27.
Then EADTEDDSKIAFLMQLQDIQYLTE [Y4T], with 3.66; and EADIEDDSKIAFLMQLQDIQYLTE [Y4I], with 3.21; and EADSEDDSKIAFLMQLQDIQYLTE [Y4S], with 3.65.
The figure for EADYERDSKIAFLMQLQDIQYLTE [D6R] is 2.09.
Take EADYESDSKIAFLMQLQDIQYLTE [D6S]: the protein stability index worked out at 2.7.
Then EADYEQDSKIAFLMQLQDIQYLTE [D6Q], with 2.57; and EADYELDSKIAFLMQLQDIQYLTE [D6L], with 1.53; and EADYEADSKIAFLMQLQDIQYLTE [D6A], with 2.21.
In the case of EADYETDSKIAFLMQLQDIQYLTE [D6T], the protein stability index worked out at 2.25.
Then EADYEKDSKIAFLMQLQDIQYLTE [D6K], with 2.63.
The figure for EADYEFDSKIAFLMQLQDIQYLTE [D6F] is 2.04; for EADYEGDSKIAFLMQLQDIQYLTE [D6G] it is 2.38; for EADYEMDSKIAFLMQLQDIQYLTE [D6M] it is 1.75.
The figure for EADYEDDSKIAFLMQLQDIQYLSE [T23S] is 3.21.
EADYEDDSKIAFLMQLQDIQYLCE [T23C]: the protein stability index was 1.87.
Then EADYEDDSKIAFLMQLQDIQYLKE [T23K], with 3.2.
The figure for EADYEDDSKIAFLMQLQDIQYLFE [T23F] is 1.98; for EADYEDDSKIAFLMQLQDIQYLQE [T23Q] it is 3.89.
Then EADYEDDSKIAFLMQLQDIQYLVE [T23V], with 1.92; and EADYEDDSKIAFLMQLQDIQYLPE [T23P], with 4.17.
EADYEDDSKIAFLMQLQDIQYLIE [T23I]: the protein stability index is 1.54.
The figure for EADYEDDSKIAFLMQLQDIQYLTD [E24D] is 3.32.
For the variant EADYEDDSKIAFLMQLQDIQYLTQ [E24Q], the protein stability index is 2.72.
Then EADYEDDSKIAFLMQLQDIQYLTY [E24Y], with 2.36; and EADYEDDSKIAFLMQLQDIQYLTM [E24M], with 1.86; and EADYEDDSKIAFLMQLQDIQYLTA [E24A], with 2.91.
As for EADYEDDSKIAFLMQLQDIQYLTT [E24T], the protein stability index came to 2.54.
Then EADYEDDSKIAFLMQLQDIQYLTR [E24R], with 2.07; and EADYEDDSKIAFLMQLQDIQGLTE [Y21G], with 4.07; and EADYEDDSKIAFLMQLQDIQRLTE [Y21R], with 2.99.
The figure for EADYEDDSKIAFLMQLQDIQQLTE [Y21Q] is 3.64.
The figure for EADYEDDSKIAFLMQLQDIQMLTE [Y21M] is 3.45.
EADYEDDSKIAFLMQLQDIQNLTE [Y21N]: the protein stability index was found to be 3.87.
The figure for EADYEDDSKIAFLMQLQDIQCLTE [Y21C] is 3.74; for EADYEDDSKIAFTMQLQDIQYLTE [L13T] it is 4.3.
The figure for EADYEDDSKIAFKMQLQDIQYLTE [L13K] is 4.11.
The figure for EADYEDDSKIAFMMQLQDIQYLTE [L13M] is 3.26.
With EADYEDDSKIAFHMQLQDIQYLTE [L13H], the protein stability index was determined as 4.15.
On to EADYEDDSKIAFPMQLQDIQYLTE [L13P], for which the protein stability index was found to be 4.68.
Take EADYEDDSKIAFDMQLQDIQYLTE [L13D]: the protein stability index was found to be 4.68.
The figure for EADYEDDSKIAFAMQLQDIQYLTE [L13A] is 4.02.

(Values after the supplement of paper PMC10567573.)
